Test results: US20220227882A1 (TRUSTEES OF TUFTS COLLEGE, published 2022)

Assays:
G445A = target: T1, G445A (Homo sapiens, UniProt P78325); assay: high-throughput flow cytometry, HEK293 cells with mutant ADAM8, high stringency; range in parentheses; closed box
T1 construct: expressed on HEK293 cells; also called human ADAM8 point mutant G445A
T1 sequence (ADAM8, looked up): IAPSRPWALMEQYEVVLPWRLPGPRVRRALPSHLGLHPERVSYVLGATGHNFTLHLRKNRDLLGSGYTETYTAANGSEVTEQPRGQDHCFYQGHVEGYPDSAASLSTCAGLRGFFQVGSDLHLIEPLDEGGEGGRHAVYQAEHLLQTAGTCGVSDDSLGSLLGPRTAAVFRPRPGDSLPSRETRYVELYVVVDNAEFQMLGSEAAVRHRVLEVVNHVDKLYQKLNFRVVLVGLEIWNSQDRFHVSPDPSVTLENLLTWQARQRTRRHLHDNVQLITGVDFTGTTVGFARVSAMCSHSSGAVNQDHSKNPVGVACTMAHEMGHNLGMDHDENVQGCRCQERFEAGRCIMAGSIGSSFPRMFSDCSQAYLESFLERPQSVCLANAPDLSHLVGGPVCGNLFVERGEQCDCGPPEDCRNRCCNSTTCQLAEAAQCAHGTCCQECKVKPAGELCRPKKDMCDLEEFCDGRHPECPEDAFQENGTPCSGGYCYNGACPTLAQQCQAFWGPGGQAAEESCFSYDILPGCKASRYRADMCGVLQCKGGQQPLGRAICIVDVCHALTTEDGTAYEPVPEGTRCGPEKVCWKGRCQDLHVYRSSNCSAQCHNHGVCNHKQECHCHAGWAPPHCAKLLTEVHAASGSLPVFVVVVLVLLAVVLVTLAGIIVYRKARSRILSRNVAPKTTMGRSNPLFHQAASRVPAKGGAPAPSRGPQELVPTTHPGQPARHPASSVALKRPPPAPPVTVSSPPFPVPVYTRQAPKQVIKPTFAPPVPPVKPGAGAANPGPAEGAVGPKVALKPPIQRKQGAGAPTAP
Procedure: A variety of experimental parameters were optimized for high-throughput flow cytometry including blocking buffer, and primary and secondary antibody concentrations, to identify the optimal conditions for screening. Through these studies ADP2 and ADP13 were determined to be high affinity binding antibodies.
Thus, for these studies antigen-binding fragments (Fabs) of ADP2 and ADP13, which bind with lower affinity than the full antibody, were generated. In addition, higher binding stringency conditions were tested, such as increased pH, salinity, and temperature, and/or increased washing, to weaken binding sufficiently to allow identification of critical binding residues in flow cytometry. The final experimental flow cytometry conditions were: primary antibody incubation with ADP2 Fab (0.50 μg/ml), ADP13 Fab (5.00 μg/ml) and Control Ab (0.16 μg/ml) for 60 minutes in flow cytometry buffer containing 10% goat serum in PBS (Ca²⁺ and Mg²⁺ free). […] Samples were washed three times after primary antibody incubation and twice after secondary antibody incubation with PBS (Ca²⁺ and Mg′ free). Next, HEK293 cells expressing WT or mutated ADAM8 proteins or EV DNA were incubated with ADP2 or ADP13 Fabs or Control Ab at their optimal concentrations. Fab binding was detected using Alexa Fluor 488-conjugated secondary antibodies and mean cellular fluorescence determined using the Intellicyt iQue flow cytometry platform. […] This counter-screen strategy facilitates the exclusion of mutants that are locally misfolded or that have an expression defect. Binding of each test Fab to each mutant clone in the alanine scanning library was determined, in duplicate, by high-throughput flow cytometry.

[1] = target: T2, Recombinant human ADAM12 (Acro Biosystems, AD2-H5228) (human, UniProt O43184 208-708); assay: ELISA, recombinant ADAM12
T2 sequence (looked up): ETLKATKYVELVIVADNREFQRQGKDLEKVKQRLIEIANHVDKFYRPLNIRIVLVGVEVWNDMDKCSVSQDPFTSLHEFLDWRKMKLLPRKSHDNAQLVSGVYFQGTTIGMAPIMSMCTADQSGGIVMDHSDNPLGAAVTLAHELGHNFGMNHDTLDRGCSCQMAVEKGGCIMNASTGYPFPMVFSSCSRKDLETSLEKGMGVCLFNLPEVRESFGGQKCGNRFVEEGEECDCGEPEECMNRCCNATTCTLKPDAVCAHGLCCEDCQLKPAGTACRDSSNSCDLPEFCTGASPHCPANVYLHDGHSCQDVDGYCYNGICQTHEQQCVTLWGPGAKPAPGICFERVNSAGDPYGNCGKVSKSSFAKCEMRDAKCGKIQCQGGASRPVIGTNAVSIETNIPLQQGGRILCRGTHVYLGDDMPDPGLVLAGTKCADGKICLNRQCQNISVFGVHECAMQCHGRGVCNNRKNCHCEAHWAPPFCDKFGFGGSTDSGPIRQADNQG
Procedure: ELISA assays were also used to test hybridoma clones, subclones and purified ADP antibodies for specificity of ADAM8 binding, i.e., binding to rHuADAM8 (Acro Biosystems, AD8-H5223) was compared to binding to closely related recombinant human ADAM proteins: […], ADAM12 (Acro Biosystems, AD2-H5228) and ADAM15 (Sino Biological, 10517-H08H). For analysis of clones and subclones, 50 μl of cell supernatants were used. A test bleed sample (1:1000) was used as a positive control. Hybridoma culture medium or a pre-bleed serum sample (1:1000) was used as a negative control. Purified mouse ADPs were assessed at 1 μg/ml vs normal mouse IgG and with a test bleed sample as a positive control. ADP binding was detected with a goat anti-mouse IgG (Fc specific)-peroxidase antibody (1:5000, Sigma-Aldrich, A0168).

B1: ADP13 Fab (Fab, V domains shown)
VH: EVQLQQSGPEMVKPGTSVKISCKASGYTFTDYYINWVKQSHGKSLEWIGDISPNIGGATYNPKFKGKAILTVDKSARTAYMELRSLTSEDSAVYCCTRGGSSYPYFYAMDYWGQGTSVTVSS
VL: DIVMSQSPSSLAVSVGEKVTMSCKSSQSLLYSSNQKKYLAWYQQKPGQSPKLLIYWASTRESGVPDRFTGSGSGTDFTLTISSVKAEDLAVYYCQQFYSYPYTFGGGTKLEINR
For B1, the “Binding Reactivity (% WT)” value (G445A) was 9.7 % WT.

B2: ADP3 (antibody, IgG1, V domains shown)
VH: EVKLEESGGGLVQPGGSMKLSCAASGFTFSDAWMDWVRQSPEKGLEWVAEIRGKVNNLATYYVESVKGRFTISRDDSKSSVYLQMNSLRAEDTGIYYCLGRYDATYAMDYWGQGTSVTVSS
VL: DVVMTQTPLSLPVSLGDQASISCRSSQSLVHSDGNTYLHWYLQKPGQSPKLLIYKLSNRFSGVPDRFSGSGSGTDFTLKISRVEAEDLGVYFCSQSTHVPWTFGGGTKLEIK
B2: no binding (tested: 1 µg/ml) [1].
